Laboratory results: patent publication US20220354960A1, “IMMUNE CHECKPOINT BLOCKING BISPECIFIC MOLECULES” (THE SCRIPPS RESEARCH INSTITUTE, priority 2019, published 2022)

Columns and labels:
[1] = target: MC1R on B16-SIY cells (mouse) (UniProt Q01727); assay: cell-based or functional assay
[2] = target: human MC1R on HEK293 cells that overexpress it (human) (UniProt Q01726); assay: cell-based or functional assay
[3] = target: human PD-L1 (extracellular domain)-Fc fusion protein (human) (UniProt Q9NZQ7); assay: ELISA on human PD-L1 (extracellular domain)-Fc fusion protein
human PD-L1 (extracellular domain)-Fc fusion protein (human), sequence (Q9NZQ7 19-238): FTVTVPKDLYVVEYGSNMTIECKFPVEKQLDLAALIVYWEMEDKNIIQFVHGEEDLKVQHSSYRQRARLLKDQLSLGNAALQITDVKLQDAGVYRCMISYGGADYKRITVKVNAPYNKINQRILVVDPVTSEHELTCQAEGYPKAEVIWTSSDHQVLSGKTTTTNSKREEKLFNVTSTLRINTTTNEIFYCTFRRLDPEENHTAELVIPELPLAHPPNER

[4] = target: human MC1R on HEK293 cells that overexpress it (human) (UniProt Q01726); assay: cell surface ELISA on fixed HEK293-MC1R cells
[5] = target: human PD-L1 (extracellular domain)-Fc fusion protein (human) (UniProt Q9NZQ7); assay: ELISA, PD-L1-Fc coated, detection with HRP anti-human kappa light chain antibody

human MC1R on HEK293 cells that overexpress it (human), sequence (Q01726 whole entry, the tested form may be a part): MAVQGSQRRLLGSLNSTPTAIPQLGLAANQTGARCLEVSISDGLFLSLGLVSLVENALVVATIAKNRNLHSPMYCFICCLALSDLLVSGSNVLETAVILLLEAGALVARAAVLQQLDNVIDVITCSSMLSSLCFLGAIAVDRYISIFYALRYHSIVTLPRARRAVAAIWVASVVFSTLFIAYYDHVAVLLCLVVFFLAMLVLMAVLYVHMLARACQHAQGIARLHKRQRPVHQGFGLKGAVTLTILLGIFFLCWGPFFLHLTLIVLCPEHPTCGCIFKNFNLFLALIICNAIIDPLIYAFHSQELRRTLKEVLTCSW
MC1R on B16-SIY cells (mouse), sequence (Q01727 whole entry): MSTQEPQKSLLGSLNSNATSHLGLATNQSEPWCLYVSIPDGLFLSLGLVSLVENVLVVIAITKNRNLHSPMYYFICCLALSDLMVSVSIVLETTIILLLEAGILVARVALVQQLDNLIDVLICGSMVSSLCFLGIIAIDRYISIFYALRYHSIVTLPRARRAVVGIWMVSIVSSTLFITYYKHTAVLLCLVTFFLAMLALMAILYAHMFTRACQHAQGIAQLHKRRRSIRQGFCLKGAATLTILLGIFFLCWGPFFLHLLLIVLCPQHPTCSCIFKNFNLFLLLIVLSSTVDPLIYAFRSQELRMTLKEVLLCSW

| B16-SIY cells cAMP-Glo Assay, EC50 [1] [nM] | CRE-Luc reporter in HEK 293 cells overexpressing MC1R, EC50 [2] [nM] | EC50 [3] [nM] | EC50 [4] [nM] | EC50 [5] [nM] | Substance |
| --- | --- | --- | --- | --- | --- |
| 0.06 | 0.09 | – | – | – | NDP-MSH peptide ([Nle4, D-Phe7]-MSH) |
| 0.06 | – | – | – | – | NDP-MSH-Synagis (control antibody Synagis conjugated at the heavy chain N-terminal serine to H2NO-NDP-MSH) |
| 0.02 | – | 0.087 | – | – | NDP-MSH-αPD-L1 N-terminal conjugate (Atezolizumab with engineered heavy chain N-terminal serine and 8x(G4S) linker, oxime-ligated to H2NO-NDP-MSH, LAR 2) (bispecific antibody) |
| – | 2.7 | – | 1.72 | 0.17 | NDP-MSH-αPD-L1 conjugate (Avelumab with NDP-MSH conjugated to lysines through BCN/PEG24, LAR about 3.5) (bispecific antibody) |
